# Where a chain is given by its changes, count along the chain named.
# B1: murine anti-human MASP-2 monoclonal antibody 60 (antibody, V domains shown)
# VH: QVQLQQSGAELMKPGASVKISCKATGYPFSTYWIEWVKQRPGHGLEWIGEILPGSDNTNYNEKFKGKATFTADTSSNTAYMQLSSLTSEDSAVYYCARRTTATRAWFVYWGQGTLVTVSA
# VL: DIVMSQSPSSLAVSVGEKVTMSCKSSQSLLYSSNQKNYLAWYQQKPGQSPKLLIYWASTRESGVPDRFTGSGSGTDFTLTISSVRAEDLAVYYCQHYYTYPWTFGGGTNLEIK
# B2: murine anti-human MASP-2 monoclonal antibody 136 (antibody, V domains shown)
# VH: QVQLQQSGAELAKPGASVKMSCKASGNTFTNYWMHWIKQRPGQGLEWVGYINPNTGYTDFNQKFKDKATLTADKSSTTAYMQLISLTSEDSTVYYCTLQLGRNFDYWGQGTTLTVSS
# VL: DIVLTQSPASLGVSLGQRATISCRASQSVSSSRSTYIHWYQQKPGQPPKLLIKYSSNLESGVPARFSGGGSGTDFTLNIHPVEAEDTATYYCHQSWEIPYTFGGGTKLEIR
# B3: murine anti-human MASP-2 monoclonal antibody 100 (antibody, V domains shown)
# VH: DVQLVESGGGLVQPGGSRKLSCAASGFTFSNFGIHWVRQAPEKGLEWVAYISSGGSAVFYADTVKGRFTISRDNSKNTLFLQMTSLRSEDTAIYYCAKSDRYFDYWGQGTTLTVSS
# VL: DIVLTQSPASLAVSLGQRATISCRASQSVSSSSYRYIHWYQQKPGQPPRLLIKYASNLESGVPARFSGSGSGTDFTLNIHPVEEEDTATYYCQHSWETPWTFGGGTKLEIK
# B4: murine anti-human MASP-2 monoclonal antibody 115 (antibody, V domains shown)
# VH: DVQLVESGGGLVQPGGSRKLSCAASGFTFSSFGMHWVRQAPEKGLEWVAYISSGSSSFFYADTVKGRFTISRDNPKNTLFLQMTSLRSEDTAMYYCARGDRNFDVWGAGTTVTVSS
# VL: B3 VL with S30T, S33R, R35S, I37M, Y40F, R49N, Y54H, E85D, T98V
# B5: murine anti-human MASP-2 monoclonal antibody 120 (antibody, V domains shown)
# VH: DVQLQESGPGLVKPSQSLSLTCTVTGYSITSDYAWSWIRQFLRNKLEWMGYISYSGRTSYNPSLKSRISITRDTSKNQFFLQLNSVTTEDTATYFCARLITGGDYWGQGTSVTVSS
# VL: DIVMTQSQKFMSTSVGDRVSVTCKASQNVGINVVWYQQKPGQSPKALIYSASYRFSGVPDRFTGSGSGTDFTLTISNVQSEDLAEYLCLQYDINPLTFGAGTKLELK
# B6: murine anti-human MASP-2 monoclonal antibody 124 (antibody, V domains shown)
# VH: DVQLQESGPGLVKPSQSLSLTCTVTGYSITSDYAWNWIRQFPGNKLEWMGYISYSGRTSYNPSLKSRLSITRDTSKNQFFLQLTSVTTEDTATYYCARHYGDFWGQGTTLTVSS
# VL: DIVMTQSQKFMSTSVGDRVSVTCKASQNVDTNVAWFQQKPGQSPKPLIYSASYRYSGVPDRFTGSGSGTDFTLTISNVQSEDLANYFCQQYNSYPSTFGSGTKLEIK
# B7: murine anti-human MASP-2 monoclonal antibody 126 (antibody, V domains shown)
# VH: B4 VH with A23V, F58S, A61V, D104E
# VL: B3 VL with S33R, R35S, I37M, Y40F, R49N, Y54H, H94Q, T98V
# B8: humanized anti-human MASP-2 monoclonal antibody 100-Hu (antibody, human IgG4 S228P, kappa, V domains shown)
# VH: B3 VH with D1Q, L11V, R18L, K19R, E42G, F80Y, T84N, S88A, I93V, L112V
# VL: EIVLTQSPATLSLSPGERATLSCRASQSVSSSSYRYIHWYQQKPGQAPRLLIYYASNLESGIPARFSGSGSGTDFTLTISSLEPEDFAVYYCQHSWETPWTFGQGTKLEIKR
# B9: humanized anti-human MASP-2 monoclonal antibody 124-Hu (antibody, human IgG4 S228P, kappa, V domains shown)
# VH: QVQLQESGPGLVKPSQTLSLTCTVSGYSITSDYAWNWIRQPPGKGLEWMGYISYSGRTSYNPSLKSRLTISRDTSKNQFSLKLSSVTAADTAVYYCARHYGDFWGQGTTVTVSS
# VL: DIQMTQSPSSLSASVGDRVTITCKASQNVDTNVAWYQQKPGKAPKLLIYSASYRYSGVPSRFSGSGSGTDFTLTISSLQPEDFATYYCQQYNSYPSTFGQGTKLEIKR
# B10: humanized anti-human MASP-2 monoclonal antibody 126-Hu (antibody, human IgG4 S228P, kappa, V domains shown)
# VH: QVQLVESGGGVVQPGRSLRLSCAASGFTFSSFGMHWVRQAPGKGLEWVAYISSGSSSSFYVDTVKGRFTISRDNSKNTLYLQMNSLRAEDTAVYYCARGDRNFEVWGQGTTVTVSS
# VL: DIQMTQSPSSLSASVGDRVTITCRASQSVSSSRYSYMHWFQQKPGKAPKLLIYHASNLESGVPSRFSGSGSGTDFTLTISSLQPEDFATYYCQQSWEVPWTFGQGTKLEIKR
# B11: humanized anti-human MASP-2 monoclonal antibody 136-Hu (antibody, human IgG4 S228P, kappa, V domains shown)
# VH: QVQLVQSGAEVKKPGASVKVSCKASGNTFTNYWMHWIRQAPGQGLEWMGYINPNTGYTDFNQKFKDRVTLTADKSTSTAYMELSSLRSEDTAVYYCTLQLGRNFDYWGQGTTVTVSS
# VL: B10 VL with Y34S, S35T, M37I, F40Y, H54Y, A55S, Q93H, V98I, W100Y
# Target: Fc-hMASP-2A-CCS (human) [IgG part: P01857]
# Assay: ELISA, plate coated with 1 ug/mL Fc-hMASP-2A-CCS
# Chain of Fc-hMASP-2A-CCS (human) [IgG part: P01857] (P01857 other isoform, or with tags, fused parts or gaps limits assumed, form in doubt): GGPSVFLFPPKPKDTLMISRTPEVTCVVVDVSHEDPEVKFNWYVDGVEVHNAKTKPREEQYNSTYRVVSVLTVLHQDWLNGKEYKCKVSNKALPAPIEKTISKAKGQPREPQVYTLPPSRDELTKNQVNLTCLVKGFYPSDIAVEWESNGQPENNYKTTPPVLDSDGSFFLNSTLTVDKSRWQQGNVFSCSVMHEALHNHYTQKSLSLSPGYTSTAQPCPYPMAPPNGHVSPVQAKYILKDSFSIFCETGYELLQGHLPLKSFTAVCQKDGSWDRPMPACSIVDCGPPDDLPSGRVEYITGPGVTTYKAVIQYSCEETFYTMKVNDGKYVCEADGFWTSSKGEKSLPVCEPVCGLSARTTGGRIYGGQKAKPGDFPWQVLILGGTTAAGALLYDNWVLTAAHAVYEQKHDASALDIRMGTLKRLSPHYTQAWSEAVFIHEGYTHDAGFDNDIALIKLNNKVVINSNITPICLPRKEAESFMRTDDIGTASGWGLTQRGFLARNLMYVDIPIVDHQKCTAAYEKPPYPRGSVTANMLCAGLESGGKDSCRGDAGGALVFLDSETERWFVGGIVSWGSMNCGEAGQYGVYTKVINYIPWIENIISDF
row,Binder,EC50 [pM]
1,B1,149
2,B2,143
3,B3,173
4,B4,151
5,B5,160
6,B6,182
7,B7,161

# Target: MASP-2-CCS-Flag (human) (UniProt O00187)
# Assay: SPR, Biacore T200, antibody captured on Protein A chip, MASP-2-CCS-Flag as analyte
# Chain of MASP-2-CCS-Flag (human) (O00187 other isoform, or with tags, fused parts or gaps limits assumed, form in doubt): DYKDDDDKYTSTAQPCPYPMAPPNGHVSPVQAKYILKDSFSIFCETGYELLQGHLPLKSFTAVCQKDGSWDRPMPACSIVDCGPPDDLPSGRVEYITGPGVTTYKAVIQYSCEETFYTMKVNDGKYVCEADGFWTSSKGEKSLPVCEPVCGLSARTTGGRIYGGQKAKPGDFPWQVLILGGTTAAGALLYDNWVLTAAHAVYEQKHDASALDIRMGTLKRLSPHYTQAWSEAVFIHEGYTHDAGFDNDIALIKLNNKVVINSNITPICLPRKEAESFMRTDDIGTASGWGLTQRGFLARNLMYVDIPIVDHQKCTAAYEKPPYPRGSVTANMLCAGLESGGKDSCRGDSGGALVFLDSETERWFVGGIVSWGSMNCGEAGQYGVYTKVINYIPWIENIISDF
Binder,Kd [pM],koff [s⁻¹],kon [M⁻¹ s⁻¹],fold affinity against the reference antibody Narsoplimab [times]
B8,701,0.000298,428000,–
B9,350,0.000582,1.66e+06,25
B10,148,6.33e-05,428000,60
B11,998,0.000589,590000,–

# Target: Fc-hMASP-2A-CCS (human) [IgG part: P01857]
# Assay: ELISA according to Example 5, plate coated with Fc-hMASP-2A-CCS
row,Binder,EC50 [pM]
1,B8,297
2,B9,250
3,B10,246
4,B11,260

# Reference: patent US20240043563A1
